According to doi:10.1101/2024.08.06.606809:

Experiments:
Test in all cases: SPR
Protein G variant GLM = target: Protein G variant GLM
Protein G variant GD = target: Protein G variant GD
Protein G variant GF = target: Protein G variant GF
[1] = target: Protein G-Fc (Fc specific Protein-G variant)

Row | Substance | Kd (Protein G variant GLM) [nM] | Kd (Protein G variant GD) [nM] | Kd (Protein G variant GF) [nM] | Kd [1] [nM]
1 | Fab^H, wild-type human (Herceptin) Fab scaffold with a kappa light chain | 8.9 | 6.4 | 1.9 | –
2 | human Fc (Fc domain of IgG) (domain or fragment) | – | – | – | 3.8
